How the values were obtained:
Experiment in all cases: Ni-NTA pull-down of fluorescent DNA with competition, filter plate
IF2D1-Oct4-R9 = IF2D1-Oct4-R9 (human, UniProt Q01860 1-360)
IF2D1-Klf4-R9 = IF2D1-Klf4-R9 (human, UniProt O43474 1-513)
IF2D1-Sox2-R9 = IF2D1-Sox2-R9 (human, UniProt P48431 1-317)
Sequence of IF2D1-Sox2-R9 (P48431 whole entry): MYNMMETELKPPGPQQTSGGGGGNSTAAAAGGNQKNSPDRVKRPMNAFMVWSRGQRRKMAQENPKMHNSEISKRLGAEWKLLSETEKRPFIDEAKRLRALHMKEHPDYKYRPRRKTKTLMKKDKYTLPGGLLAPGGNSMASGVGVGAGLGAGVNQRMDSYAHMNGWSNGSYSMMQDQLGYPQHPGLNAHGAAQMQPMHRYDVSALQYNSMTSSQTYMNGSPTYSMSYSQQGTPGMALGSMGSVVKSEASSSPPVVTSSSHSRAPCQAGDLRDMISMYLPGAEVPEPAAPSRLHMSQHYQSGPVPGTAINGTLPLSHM

Sequence of IF2D1-Oct4-R9 (Q01860 whole entry): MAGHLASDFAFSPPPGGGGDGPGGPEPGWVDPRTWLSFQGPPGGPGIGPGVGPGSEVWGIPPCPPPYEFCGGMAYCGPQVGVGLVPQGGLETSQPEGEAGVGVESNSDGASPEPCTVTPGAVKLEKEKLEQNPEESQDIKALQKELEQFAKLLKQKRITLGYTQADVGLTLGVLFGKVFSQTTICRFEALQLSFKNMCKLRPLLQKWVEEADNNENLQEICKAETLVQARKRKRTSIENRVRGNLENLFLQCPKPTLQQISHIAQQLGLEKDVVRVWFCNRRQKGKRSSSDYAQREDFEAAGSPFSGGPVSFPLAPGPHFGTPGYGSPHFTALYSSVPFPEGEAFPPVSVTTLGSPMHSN
Sequence of IF2D1-Klf4-R9 (O43474 whole entry): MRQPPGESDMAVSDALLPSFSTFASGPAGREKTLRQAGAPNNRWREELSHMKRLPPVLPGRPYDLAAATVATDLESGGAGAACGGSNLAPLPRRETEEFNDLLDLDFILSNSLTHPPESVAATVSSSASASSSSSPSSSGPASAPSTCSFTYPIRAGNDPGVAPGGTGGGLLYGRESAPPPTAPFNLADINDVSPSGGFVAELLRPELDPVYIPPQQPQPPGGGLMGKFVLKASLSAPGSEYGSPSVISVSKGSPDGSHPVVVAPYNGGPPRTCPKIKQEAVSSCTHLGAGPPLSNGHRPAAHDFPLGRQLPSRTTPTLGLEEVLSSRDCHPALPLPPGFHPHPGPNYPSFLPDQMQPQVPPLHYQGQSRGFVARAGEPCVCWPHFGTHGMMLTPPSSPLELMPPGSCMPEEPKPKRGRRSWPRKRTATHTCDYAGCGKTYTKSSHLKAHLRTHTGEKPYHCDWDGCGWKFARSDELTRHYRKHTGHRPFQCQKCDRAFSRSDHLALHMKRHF

B1: Oct4 cognate probe (dsDNA)
DNA 1: CAGAGAGATGCATGTGAGATGCATGTGAGATGCATCG
DNA 2: CGATGCATCTCACATGCATCTCACATGCATCTCTCTG
B1: binds (IF2D1-Oct4-R9).

B2: Klf4 cognate probe (dsDNA)
DNA 1: CAGAGAACCCCACCCATAAACCCCACCCATAAACCCCACCCCG
DNA 2: CGGGGTGGGGTTTATGGGTGGGGTTTATGGGTGGGGTTCTCTG
B2: binds (IF2D1-Klf4-R9).

B3: Sox2 cognate probe (dsDNA)
DNA 1: CAGAGGACAAAGGTGGACAAAGGTGGACAAAGCG
DNA 2: CGCTTTGTCCACCTTTGTCCACCTTTGTCCTCTG
B3: binds (IF2D1-Sox2-R9).

From publication PMC3183262
